Test results as given in the supplement of paper PMC5998384.

Legend:
HeLa Kyoto [1] = experiment: thermal stability score vs G1/S (z-score of summed log2 fold changes over temperatures); higher = more thermally stable than in G1/S
HeLa Kyoto [2] = experiment: melting temperature (median over replicates), in situ; higher = more thermally stable
HeLa Kyoto [3] = experiment: solubility change mitosis vs G1/S (difference of NP-40 vs SDS log2 ratios) (log2 ratio difference); higher = more soluble in mitosis
HeLa Kyoto [4] = experiment: solubility in G1/S (NP-40 vs SDS abundance) (log2 ratio); higher = more soluble; conditions: cell cycle stage: G1/S
[5] = cell cycle stage: early G1 (4.5 h after nocodazole release)
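For melting temperature (median over replicates), in situ in this document: HeLa Kyoto cells synchronized by double thymidine or nocodazole block, proteins quantified by TMT10plex mass spectrometry, three independent biological replicates.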
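For solubility change mitosis vs G1/S (difference of NP-40 vs SDS log2 ratios) in this document: synchronized HeLa Kyoto cells (double thymidine block for G1/S, nocodazole release for mitosis), protein amounts in NP-40 versus SDS lysates quantified by mass spectrometry, three biological replicates.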
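For solubility in G1/S (NP-40 vs SDS abundance) in this document: HeLa Kyoto cells arrested at G1/S by double thymidine block, proteins quantified by TMT10plex mass spectrometry in mild NP-40 versus SDS extracts, three biological replicates.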
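For thermal stability score vs G1/S (z-score of summed log2 fold changes over temperatures) in this document: synchronized HeLa Kyoto cells, proteins quantified by TMT10plex mass spectrometry, three biological replicates, mitosis taken 0.5 h after nocodazole release, G1/S directly after double thymidine block.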

| Sequence | thermal stability score (HeLa Kyoto [1]; [5]) | thermal stability score (HeLa Kyoto [1]; cell cycle stage: mitosis) | melting temperature (HeLa Kyoto [2]; cell cycle stage: G1/S) | melting temperature (HeLa Kyoto [2]; cell cycle stage: mitosis) | solubility change mitosis (log2) (HeLa Kyoto [3]) | solubility in G1/S (log2) (HeLa Kyoto [4]) |
| --- | --- | --- | --- | --- | --- | --- |
| MAGIIKKQILKHLSRFTKNLSPDKINLSTLKGEGELKNLELDEEVLQNMLDLPTWLAINKVFCNKASIRIPWTKLKTHPICLSLDKVIMEMSTCEEPRSPNGPSPIATASGQSEYGFAEKVVEGISVSVNSIVIRIGAKAFNASFELSQLRIYSVNAHWEHGDLRFTRIQDPQRGEVLTFKEINWQMIRIEADATQSSHLEIMCAPVRLITNQSKIRVTLKRRLKDCNVIATKLVLILDDLLWVLTDSQLKAMVQYAKSLSEAIEKSTEQRKSMAPEPTQSSTVVASAQQVKTTQTSNAPDVNDAIVKLFNDFDVKETSHHLVISHLDLHICDDIHAKEKESNRRITGGAMQLSFTQLTIDYYPYHKAGDSCNHWMYFSDATKTKNGWANELLHEFECNVEMLKQAVKDHNVGSPPKSPTHASPQHTQTEKDYPLKGTCRTPSVLSQQSKAKLMSSSVVVRLADFNIYQVSTAEQCRSSPKSMICCNKKSLYLPQEMSAVYIEFTEYYYPDGKDFPIPSPNLYSQLNALQFTVDERSILWLNQFLLDLKQSLNQFMAVYKLNDNSKSDEHVDVRVDGLMLKFVIPSEVKSECHQDQPRAISIQSSEMIATNTRHCPNCRHSDLEALFQDFKDCDFFSKTYTSFPKSCDNFNLLHPIFQRHAHEQDTKMHEIYKGNITPQLNKNTLKTSAATDVWAVYFSQFWIDYEGMKSGKGRPISFVDSFPLSIWICQPTRYAESQKEPQTCNQVSLNTSQSESSDLAGRLKRKKLLKEYYSTESEPLTNGGQKPSSSDTFFRFSPSSSEADIHLLVHVHKHVSMQINHYQYLLLLFLHESLILLSENLRKDVEAVTGSPASQTSICIGILLRSAELALLLHPVDQANTLKSPVSESVSPVVPDYLPTENGDFLSSKRKQISRDINRIRSVTVNHMSDNRSMSVDLSHIPLKDPLLFKSASDTNLQKGISFMDYLSDKHLGKISEDESSGLVYKSGSGEIGSETSDKKDSFYTDSSSILNYREDSNILSFDSDGNQNILSSTLTSKGNETIESIFKAEDLLPEAASLSENLDISKEETPPVRTLKSQSSLSGKPKERCPPNLAPLCVSYKNMKRSSSQMSLDTISLDSMILEEQLLESDGSDSHMFLEKGNKKNSTTNYRGTAESVNAGANLQNYGETSPDAISTNSEGAQENHDDLMSVVVFKITGVNGEIDIRGEDTEICLQVNQVTPDQLGNISLRHYLCNRPVGSDQKAVIHSKSSPEISLRFESGPGAVIHSLLAEKNGFLQCHIENFSTEFLTSSLMNIQHFLEDETVATVMPMKIQVSNTKINLKDDSPRSSTVSLEPAPVTVHIDHLVVERSDDGSFHIRDSHMLNTGNDLKENVKSDSVLLTSGKYDLKKQRSVTQATQTSPGVPWPSQSANFPEFSFDFTREQLMEENESLKQELAKAKMALAEAHLEKDALLHHIKKMTVE [UHRF1BP1L] | -1.27 | -1.34 | 53.9 °C | 53.8 °C | -0.181 | -0.0678 |
| MAGIIKKQILKHLSRFTKNLSPDKINLSTLKGEGQLTNLELDEEVLQNVLELPTWLAITRVYCNRASIRIQWTKLKTHPICLCLDKVEVEMKTCEDPRPPNGQSPIALASGQSEYGFAEKVVEGMFIIVNSITIKIHSKAFHASFELWQLQGYSVNPNWQQSDLRLTRITDPCRGEVLTFKEITWQTLRIEADATDNGDQDPVTTPLRLITNQGRIQIALKRRTKDCNVISSKLMFLLDDLLWVLTDSQLKAMMKYAESLSEAMEKSAHQRKSLAPEPVQITPPAPSAQQSWAQAFGGSQGNSNSSSSRLSQYFEKFDVKESSYHLLISRLDLHICDDSQSREPGVSANRLMGGAMQLTFRKMAFDYYPFHWAGDSCKHWVRHCEAMETRGQWAQKLVMEFQSKMEKWHEETGLKPPWHLGVDSLFRRKADSLSSPRKNPLERSPSQGRQPAFQPPAWNRLRSSCMVVRVDDLDIHQVSTAGQPSKKPSTLLSCSRKLHNLPTQVSAIHIEFTEYYFPDNQELPVPCPNLYIQLNGLTFTMDPVSLLWGNLFCLDLYRSLEQFKAIYKLEDSSQKDEHLDIRLDAFWLKVSFPLEKRERAELHRPQALVFSASGMIATNTRHAPHCSCSDLQSLFRGFAAAEFFHSNYDHFPKVPGGFSLLHMLFLHHAFQMDSCLPQPNTLPPQRPKASWDLWSVHFTQISLDFEGTENFKGHTLNFVAPFPLSIWACLPLRWQQAQARKLLLASEGRLKPSASFGSPVQSEALAPDSMSHPRSKTEHDLKSLSGLTEVMEILKEGSSGMDNKGPLTELEDVADVHMLVHSPAHVRVRLDHYQYLALLRLKEVLQRLQEQLTKDTESMTGSPLQNQTACIGVLFPSAEVALLMHPAPGAVDADSAGSDSTSLVDSELSPSEDRELKSDASSDQGPASPEKVLEESSIENQDVSQERPHSNGELQDSGPLAQQLAGKGHEAVESLQAKKLSRTQASSSPAALKPPAGRETAVNGQGELIPLKNIEGELSSAIHMTKDATKEALHATMDLTKEAVSLTKDAFSLGRDRMTSTMHKMLSLPPAKEPMAKTDEGVAAPVSGGAARLRFFSMKRTVSQQSFDGVSLDSSGPEDRISVDSDGSDSFVMLLESESGPESVPPGSLSNVSDNAGVQGSPLVNNYGQGSPAANSSVSPSGEDLIFHPVSVLVLKVNEVSFGIEVRGEDLTVALQAEELTLQQLGTVGLWQFLHGQCPGTCFQESSTLKTGHIRPAVGLRFEVGPGAAVHSPLASQNGFLHLLLHGCDLELLTSVLSGLGPFLEDEEIPVVVPMQIELLNSSITLKDDIPPIYPTSPGPIPITLAMEHVVLKRSDDGVFHIGAAAQDKPSAEVLKSEKRQPPKEQVFLVPTGEVFEQQVKELPILQKELIETKQALANANQDKEKLLQEIRKYNPFFEL [UHRF1BP1] | -1.63 | -1.87 | 54.1 °C | 53.5 °C | -0.154 | -0.0773 |
| MAGKAHRLSAEERDQLLPNLRAVGWNELEGRDAIFKQFHFKDFNRAFGFMTRVALQAEKLDHHPEWFNVYNKVHITLSTHECAGLSERDINLASFIEQVAVSMT [PCBD1] | 1.22 | -0.726 | 54.6 °C | 55.6 °C | 0.0567 | 0.0398 |
| MAGKKNVLSSLAVYAEDSEPESDGEAGIEAVGSAAEEKGGLVSDAYGEDDFSRLGGDEDGYEEEEDENSRQSEDDDSETEKPEADDPKDNTEAEKRDPQELVASFSERVRNMSPDEIKIPPEPPGRCSNHLQDKIQKLYERKIKEGMDMNYIIQRKKEFRNPSIYEKLIQFCAIDELGTNYPKDMFDPHGWSEDSYYEALAKAQKIEMDKLEKAKKERTKIEFVTGTKKGTTTNATSTTTTTASTAVADAQKRKSKWDSAIPVTTIAQPTILTTTATLPAVVTVTTSASGSKTTVISAVGTIVKKAKQ [SAP30BP] | 0.846 | 1.18 | 52.6 °C | 53.6 °C | -0.0287 | 0.144 |
